The test addresses T1, MPER peptide (wild type, for epitope mapping) (HIV-1 HXB2).
T1 construct: also called wild-type MPER (WT); source: synthetic peptide
T1 chain: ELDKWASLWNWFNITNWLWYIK
Nature of the test: SPR. The note with it: both partners purified.

B1: rmAb 235 IgG1 (antibody, V domains shown)
VH: QVQLQQSGTDLVRPGTSVKVSCKASGYAFTTYFIEWVKQRPGQGLEWIGVINPGSGIPNYNEMFKGKATLTADKSSSTAYLHLSSLTSDDSAVYFCARAPYYYGSSYYYFDVWGAGTTVTVSS
VL: DIVMSQSPSSLAVSVGEKVTMSCKSSQSLLYSSNQKNYLAWYQQKPGQSPKLLIYWASTRDSGVPDRFTGSGSGTDFTLTISSVKAEDLAVYCCQQYYNYPFTFGAGTKLEIK
Take B1: the binding result is “binds”.

B2: rmAb 460 IgG1 (antibody, V domains shown)
VH: EVQLQQSGAELVKPGASVKLSCTASGFNIKDTYMHWVKQRPEQGLEWIGRIDPANGNTKYDPKFQGKATITADTSSNTAYLQLSSLTSEDTAVYFCTRSRGYFGNYYFDYWGQGTTLTVSS
VL: QIVLTQSPAVMSASPGERVTMTCSASSSVSYMYWYQQKPRSSPKPWIYLTSNLASGVPARFSGSGSGTSYSLTISSMEAEDAATYYCQQWSSIPLTFGAGTKLELK
For the molecule B2, the binding result is recorded as “binds”.
